Results taken from paper PMC8639777 (Nature, 2021).
Substitutions are numbered along the chain they refer to. Numbers in names are those of the source.

B1: human ALKAL2 ALKAL domain (ALKAL2-AD), residues 71-152, wild type (ligand, UniProt Q6UX46 71-152, looked up)
chain: AEAAGLGPSPEQRVEIVPRDLRMKDKFLKHLTGPLYFSPKCSKHFHRLYHNTRDCTIPAYYKRCARLLTRLAVSPVCMEDKQ
B2: human ALKAL2-AD (71-152) R140E (ligand, UniProt Q6UX46 71-152, looked up)
chain: B1 chain with R70E
B3: human ALKAL2-AD (71-152) R123E (ligand, UniProt Q6UX46 71-152, looked up)
chain: B1 chain with R53E

Legend:
Experiment in all cases: BLI
[1] = molecular target: human ALK GRD (678-1030) Y966R (human, UniProt Q9UM73 678-1030, Y966R)
[2] = molecular target: human ALK GRD (678-1030) E974R (human, UniProt Q9UM73 678-1030, E974R)
[3] = molecular target: human ALK GRD (678-1030) E978R (human, UniProt Q9UM73 678-1030, E978R)
[4] = molecular target: human ALK glycine-rich domain (GRD), residues 678-1030, wild type (human, UniProt Q9UM73 678-1030)
Sequence of human ALK glycine-rich domain (GRD), residues 678-1030, wild type (Q9UM73 678-1030): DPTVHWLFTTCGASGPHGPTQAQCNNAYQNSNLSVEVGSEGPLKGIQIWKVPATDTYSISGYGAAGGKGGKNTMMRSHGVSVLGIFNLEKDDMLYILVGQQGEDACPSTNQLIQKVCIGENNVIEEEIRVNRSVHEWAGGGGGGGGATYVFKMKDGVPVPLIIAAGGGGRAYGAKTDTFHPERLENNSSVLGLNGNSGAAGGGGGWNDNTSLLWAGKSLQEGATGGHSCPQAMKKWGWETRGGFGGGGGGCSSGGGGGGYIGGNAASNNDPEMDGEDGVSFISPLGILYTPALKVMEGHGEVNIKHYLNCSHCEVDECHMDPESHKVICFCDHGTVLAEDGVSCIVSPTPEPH

Sequence of human ALK GRD (678-1030) E974R (Q9UM73 678-1030 E974R): as the sequence (Q9UM73 678-1030) above, with E297R counted along it
Sequence of human ALK GRD (678-1030) Y966R (Q9UM73 678-1030 Y966R): as the sequence (Q9UM73 678-1030) above, with Y289R counted along it
Sequence of human ALK GRD (678-1030) E978R (Q9UM73 678-1030 E978R): as the sequence (Q9UM73 678-1030) above, with E301R counted along it

Binder	Kd [1] [nM]	Kd [2] [nM]	Kd [3] [nM]	Kd [4] [nM]
B1	5120	1410	6110	329
B2				2950
B3				391
